Source: publication PMC11417369, “DNA sequence and chromatin differentiate sequence-specific transcription factor binding in the human malaria parasite Plasmodium falciparum”
Changes are numbered by the printed parent chain.

T1: PF3D7_0420300 D1 (Plasmodium falciparum, UniProt Q8I1N6 1956-2015)
T1 sequence: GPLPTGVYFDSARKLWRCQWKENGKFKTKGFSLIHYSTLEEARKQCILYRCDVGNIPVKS

B1: CACACA_negctrl_site1550 (dsDNA)
DNA 1: TAAAATTAATAAAATATTTTCACTTAATATATATAA
DNA 2: TTATATATATTAAGTGAAAATATTTTATTAATTTTA
B2: CACACA_negctrl_site1331 (dsDNA)
DNA 1: AATATAATCTTTCAAAAGAAAAAGACTTCATGAAAA
DNA 2: TTTTCATGAAGTCTTTTTCTTTTGAAAGATTATATT
B3: CACACA_negctrl_site309 (dsDNA)
DNA 1: TTATTCCTTTTCCTTTTTTTTTTTTAACCAAAAAAA
DNA 2: TTTTTTTGGTTAAAAAAAAAAAAGGAAAAGGAATAA
B4: CACACA_negctrl_site307 (dsDNA)
DNA 1: TATTCTATAAATATATTTTTTTAATTTTTTATTTTA
DNA 2: TAAAATAAAAAATTAAAAAAATATATTTATAGAATA
B5: CACACA_negctrl_site510 (dsDNA)
DNA 1: TAATATCTAAAAAATATATTTTTTATTTTTTATTAA
DNA 2: TTAATAAAAAATAAAAAATATATTTTTTAGATATTA
B6: CACACA_negctrl_site514 (dsDNA)
DNA 1: AGATTTCAAGGTAATAGATCAATTTTAATTTGTAAA
DNA 2: TTTACAAATTAAAATTGATCTATTACCTTGAAATCT
B7: CACACA_negctrl_site521 (dsDNA)
DNA 1: TAGTTCTTTTAATTTAGTATTATACAATATTGGAAA
DNA 2: TTTCCAATATTGTATAATACTAAATTAAAAGAACTA
B8: CACACA_negctrl_site1522 (dsDNA)
DNA 1: TTTTTATGTTATCAAATAAATATAAATATAATTCAT
DNA 2: ATGAATTATATTTATATTTATTTGATAACATAAAAA
B9: CACACA_negctrl_site1696 (dsDNA)
DNA 1: TTCCTTCAAAATTTAAGTAATAAGATAAAAATATAA
DNA 2: TTATATTTTTATCTTATTACTTAAATTTTGAAGGAA
B10: CACACA_negctrl_site609 (dsDNA)
DNA 1: GTATATATATATATATATATATATATATATATATAT
DNA 2: B10 DNA 1 with G1A, T36C
B11: CACACA_negctrl_site60 (dsDNA)
DNA 1: TTATAGGTTCTATACATATATTTATATATGTACAGA
DNA 2: TCTGTACATATATAAATATATGTATAGAACCTATAA
B12: CACACA_negctrl_site392 (dsDNA)
DNA 1: TGGTCTTTTAAACAAAAATATAAATTTTTAAATATG
DNA 2: CATATTTAAAAATTTATATTTTTGTTTAAAAGACCA
B13: CACACA_negctrl_site930 (dsDNA)
DNA 1: ACATATATATATATATATATATATATATATTCTTAA
DNA 2: TTAAGAATATATATATATATATATATATATATATGT
B14: CACACA_negctrl_site165 (dsDNA)
DNA 1: TCTCAAGTTGTTAAAAAATAAAAACAATAAATCTAA
DNA 2: TTAGATTTATTGTTTTTATTTTTTAACAACTTGAGA
B15: CACACA_negctrl_site641 (dsDNA)
DNA 1: TCTTGACGAAGTAGAAGGATATATATATAAAAAAAA
DNA 2: TTTTTTTTATATATATATCCTTCTACTTCGTCAAGA
B16: CACACA_site8429 (dsDNA)
DNA 1: TAAGAAATAAATAGTACACACATAGACACCCACCCA
DNA 2: TGGGTGGGTGTCTATGTGTGTACTATTTATTTCTTA
B17: CACACA_negctrl_site1320 (dsDNA)
DNA 1: TTTTAAAACAATGAGATTCCTTTCTTTTTTTCTTTT
DNA 2: AAAAGAAAAAAAGAAAGGAATCTCATTGTTTTAAAA
B18: CACACA_negctrl_site17 (dsDNA)
DNA 1: AAAAGAAAAAAAAAAAAAAAAAAAATTAAAATATAA
DNA 2: TTATATTTTAATTTTTTTTTTTTTTTTTTTTCTTTT
B19: CACACA_negctrl_site892 (dsDNA)
DNA 1: TTAATATATAATAAATTTTTTTTTTTTTTTTTTTTT
DNA 2: AAAAAAAAAAAAAAAAAAAAATTTATTATATATTAA
B20: CACACA_site2373 (dsDNA)
DNA 1: ATGTTCTTTAAAACCACACACCCCCCAACCCCCCTC
DNA 2: GAGGGGGGTTGGGGGGTGTGTGGTTTTAAAGAACAT
B21: CACACA_negctrl_site1763 (dsDNA)
DNA 1: AAAAAAAAATATACATATATATATATATATATATAT
DNA 2: ATATATATATATATATATATATGTATATTTTTTTTT
B22: CACACA_negctrl_site84 (dsDNA)
DNA 1: CACACTTTTTAAATTAACGCATTTCAAAAAAAATAT
DNA 2: ATATTTTTTTTGAAATGCGTTAATTTAAAAAGTGTG
B23: CACACA_negctrl_site1272 (dsDNA)
DNA 1: ATTTTTTTTTTTTTTTTTTTTTTTTAGATTAAGAAA
DNA 2: TTTCTTAATCTAAAAAAAAAAAAAAAAAAAAAAAAT
B24: CACACA_negctrl_site1348 (dsDNA)
DNA 1: TTATTATCATCAAATCAAAAAATTCTTTTACCTGTT
DNA 2: AACAGGTAAAAGAATTTTTTGATTTGATGATAATAA
B25: CACACA_site8825 (dsDNA)
DNA 1: AAAAAAGATAATTATGCACACACACCCACCCACCCA
DNA 2: TGGGTGGGTGGGTGTGTGTGCATAATTATCTTTTTT
B26: CACACA_negctrl_site10 (dsDNA)
DNA 1: AAATCACAAAAAAAAAAAAAAATATATATATATATA
DNA 2: TATATATATATATATTTTTTTTTTTTTTTGTGATTT
B27: CACACA_negctrl_site916 (dsDNA)
DNA 1: TTTTTAAATAACCTATATATTATTATGAAACATAAA
DNA 2: TTTATGTTTCATAATAATATATAGGTTATTTAAAAA
B28: CACACA_site319 (dsDNA)
DNA 1: TATGTAACCTGTTTTACACACCCCCACCCCCCTCTT
DNA 2: AAGAGGGGGGTGGGGGTGTGTAAAACAGGTTACATA
B29: CACACA_negctrl_site753 (dsDNA)
DNA 1: ATTTTTTTTTAATGCAATATATTTTGAAAATTTTAT
DNA 2: ATAAAATTTTCAAAATATATTGCATTAAAAAAAAAT
B30: CACACA_negctrl_site1137 (dsDNA)
DNA 1: ATTATAAAAGAATTTTTTTTTATTTCATTAAAATAT
DNA 2: ATATTTTAATGAAATAAAAAAAAATTCTTTTATAAT
B31: CACACA_negctrl_site1120 (dsDNA)
DNA 1: TCTCAAAAAAAAAAAAAAAAAAAAAAATTAAAAAAT
DNA 2: ATTTTTTAATTTTTTTTTTTTTTTTTTTTTTTGAGA
B32: CACACA_negctrl_site285 (dsDNA)
DNA 1: TATTATGTCTAAAATAACATATTAATATATTATTTC
DNA 2: GAAATAATATATTAATATGTTATTTTAGACATAATA
B33: CACACA_negctrl_site979 (dsDNA)
DNA 1: ATGTAATTCTTTTACTTTTTTTTTTTTTTTTTTTTT
DNA 2: AAAAAAAAAAAAAAAAAAAAAGTAAAAGAATTACAT
B34: CACACA_negctrl_site553 (dsDNA)
DNA 1: TTTTTATATTATTTAATGAGAAATAATTATAAACAA
DNA 2: TTGTTTATAATTATTTCTCATTAAATAATATAAAAA
B35: CACACA_negctrl_site232 (dsDNA)
DNA 1: AAACAAAATTTATTTCAAAGTTAATAATTTTTATGT
DNA 2: ACATAAAAATTATTAACTTTGAAATAAATTTTGTTT
B36: CACACA_negctrl_site1280 (dsDNA)
DNA 1: TTATTAAGTAAATCACATTTAATTTTTTTTTTTTTT
DNA 2: AAAAAAAAAAAAAATTAAATGTGATTTACTTAATAA
B37: CACACA_negctrl_site27 (dsDNA)
DNA 1: TTTTTTGGGTAAAATTATAAAATATGTATATATAAA
DNA 2: TTTATATATACATATTTTATAATTTTACCCAAAAAA
B38: CACACA_negctrl_site219 (dsDNA)
DNA 1: GCAAAACATTTTTAAAATAAAAATAATAAAATATAT
DNA 2: ATATATTTTATTATTTTTATTTTAAAAATGTTTTGC
B39: CACACA_negctrl_site1833 (dsDNA)
DNA 1: TAATATTTTTATTATTAGAATTGTATATGTTTAATA
DNA 2: TATTAAACATATACAATTCTAATAATAAAAATATTA
B40: CACACA_negctrl_site681 (dsDNA)
DNA 1: CACAAAGGTCTGAAATTTTAGGGGTGCCTGGGACTA
DNA 2: TAGTCCCAGGCACCCCTAAAATTTCAGACCTTTGTG
B41: CACACA_negctrl_site460 (dsDNA)
DNA 1: ATAATGTATTTATATATATATATATATTTTAATAAA
DNA 2: TTTATTAAAATATATATATATATATAAATACATTAT
B42: CACACA_negctrl_site1830 (dsDNA)
DNA 1: ATGGACATTTTATAAATCACAATGGATATTTTATAA
DNA 2: TTATAAAATATCCATTGTGATTTATAAAATGTCCAT
B43: CACACA_negctrl_site245 (dsDNA)
DNA 1: TTTTTATTTTATAATATATTCCTTTTCCTTTCTTTC
DNA 2: GAAAGAAAGGAAAAGGAATATATTATAAAATAAAAA
B44: CACACA_negctrl_site571 (dsDNA)
DNA 1: TTTGTAATAAACTACTTTTTTTTTTTTTTTTTTTTT
DNA 2: AAAAAAAAAAAAAAAAAAAAAGTAGTTTATTACAAA

The binders below were run against T1, PF3D7_0420300 D1 (assay: gcPBM; about 25 ug protein; PBS, 1% milk, 0.2 mg/ml BSA, salmon testes DNA, 0.03% Triton X-100). Conditions: tags: N-terminal GST (pGEX-4T-1), kept; label: surface-attached array probe.

Binder | binding signal
B1 | 8.87 ln median PBM intensity, better of two orientations
B2 | 8.86 ln median PBM intensity, better of two orientations
B3 | 8.9 ln median PBM intensity, better of two orientations
B4 | 8.77 ln median PBM intensity, better of two orientations
B5 | 8.86 ln median PBM intensity, better of two orientations
B6 | 8.83 ln median PBM intensity, better of two orientations
B7 | 8.91 ln median PBM intensity, better of two orientations
B8 | 8.91 ln median PBM intensity, better of two orientations
B9 | 8.8 ln median PBM intensity, better of two orientations
B10 | 8.9 ln median PBM intensity, better of two orientations
B11 | 8.89 ln median PBM intensity, better of two orientations
B12 | 8.76 ln median PBM intensity, better of two orientations
B13 | 8.93 ln median PBM intensity, better of two orientations
B14 | 8.93 ln median PBM intensity, better of two orientations
B15 | 8.88 ln median PBM intensity, better of two orientations
B16 | 10.6 ln median PBM intensity, better of two orientations
B17 | 8.89 ln median PBM intensity, better of two orientations
B18 | 8.84 ln median PBM intensity, better of two orientations
B19 | 8.85 ln median PBM intensity, better of two orientations
B20 | 10.6 ln median PBM intensity, better of two orientations
B21 | 8.93 ln median PBM intensity, better of two orientations
B22 | 8.95 ln median PBM intensity, better of two orientations

Binder | binding signal
B23 | 8.84 ln median PBM intensity, better of two orientations
B24 | 8.94 ln median PBM intensity, better of two orientations
B25 | 10.6 ln median PBM intensity, better of two orientations
B26 | 8.95 ln median PBM intensity, better of two orientations
B27 | 8.75 ln median PBM intensity, better of two orientations
B28 | 10.7 ln median PBM intensity, better of two orientations
B29 | 8.96 ln median PBM intensity, better of two orientations
B30 | 8.74 ln median PBM intensity, better of two orientations
B31 | 8.78 ln median PBM intensity, better of two orientations
B32 | 8.94 ln median PBM intensity, better of two orientations
B33 | 8.97 ln median PBM intensity, better of two orientations
B34 | 8.82 ln median PBM intensity, better of two orientations
B35 | 8.93 ln median PBM intensity, better of two orientations
B36 | 8.82 ln median PBM intensity, better of two orientations
B37 | 8.81 ln median PBM intensity, better of two orientations
B38 | 8.88 ln median PBM intensity, better of two orientations
B39 | 8.92 ln median PBM intensity, better of two orientations
B40 | 8.87 ln median PBM intensity, better of two orientations
B41 | 8.96 ln median PBM intensity, better of two orientations
B42 | 8.96 ln median PBM intensity, better of two orientations
B43 | 8.97 ln median PBM intensity, better of two orientations
B44 | 8.96 ln median PBM intensity, better of two orientations
